Measurements reported in the RNAGym collection of RNA variant scans (doi:10.1073/pnas.2313332121).

B1: TPR t1 (parent)
chain: GACCAAUCUGCCCUCAGAGCUCGAGAACAUCUUCGGAUGCAGAGGAGGCAGGCUUCGGUGGCGCGAUAGCGCCAACGUCCUCAACCUCCAAUGCAUCCCACCACAUGAUGAUGCCUGAAGAGCCUUGGUUUUUUG

Variants of: B1
Assay: polymerase ribozyme fitness, log enrichment relative to wild type (log ratio); higher = more active; in vitro selection for triplet polymerase activity
Summary of the method: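 Only genotypes with ≥10 input reads and ≥1 read per output were kept after Illumina sequencing of input and output libraries. These libraries were PCR-built, transcribed mutants of each subunit of a heterodimeric triplet polymerase ribozyme, each put through one triplicate in vitro selection round with frozen incubation at −7 °C, gel excision of extended constructs, streptavidin-bead capture and RT-PCR. Fitness is a logarithmic ratio of genotype enrichment to wild-type enrichment, from inverse-variance-weighted replicate averages, with the logarithm in base 2.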

Variant | polymerase ribozyme fitness (log ratio)
A2C U38A C56A G113C U129A | -4.44
C13U C20G C62G C104A G110U A121U | -6.79
G69U C72G | -1.29
G52U U92A C104U | -4.43
G120A U125A | 1.26
A18U C56U U87G U106C A121C | -0.72
A6U G57C G69A A90G | -2.65
C64U C72G U78A G127U U129C | -1.9
C28G G47A C56U U116G | -5.77
G39C G57A | -1.33
G60U A95G C115G | -2.25
C15A C98U G117A | -4.11
G42A C94G | -3.05
A41G C73U A100U | -1.33
U38A | -0.984
A111G U116G C124A U131G | -1.23
U9G G51A G60A C94A | -3.72
C40U G48U C62G | -3.32
U55G C62G | -0.626
C86A U92A C115A C123G | -2.27
U9G A16U U59C U81A C94A | -1.92

Variant | polymerase ribozyme fitness (log ratio)
C3U C12U A18U U87A C88U | -2.52
U7A C15A C101A U112A | 0.0193
C22G G61U | -2.12
C62G C70A C85A C98U C124U | -6.66
C11U C15A A26G C53G G61U G120C | -4.04
A6U C8A G71U C101G | -1.45
C56U C72A G120A | -0.183
C3G G42A C56G U106C G113U A121U | -4.31
A27G C72A G93C G120U | -2.9
C72A A90U C115U | -1.55
C64U C86A G135U | -2.35
C12U C49A C73U U92C | -1
C8U C20G A95G G113U G128A | -2.96
C12A C70A | -2.05
C102U C114A | -3.75
C20U G63C | -2.1
A5G C8U U38G U106A C114A | -1.52
C8G G36A | -0.023
C56A C73A C124G U125C U126A | -2.94
A46U C82G U87G | -1.06
A119C | -4.38

Variant | polymerase ribozyme fitness (log ratio)
G17A A90C A95G C104U A119U | -3
G42A A90C U96A G117U | -5.05
A18U C53A | -2.38
C12G C64U A75U U116G G122A C124G | 0.593
G35A C56A | -4.2
U9C A105U U126A U132A | -2.93
A5U C123A | 1.2
A26G C28U U87C A118U | -2.19
C15G C49U U106A | -3.74
G71C U81A G120U | -1.99
A43U U81A C85G | -3.37
C13A C40U C49G C88A | -3.8
G42A G45C C123U | -1.9
C4G G60A | -1.91
U7G C8G G44A G120A C124A | 1.06
A41U G69U U78G C123U | 1.47
G69U U106C A121U | 2.34
C8U A16U A66U C72G G77U C123U | -1.74
C8G C22G G47A G77U | -4.32
U14G C53U C85A C88G | -3.97
C13G G45C C53U G63U C88A | -3.62

Variant | polymerase ribozyme fitness (log ratio)
A18U C62U A84C G120U G135U | -5.35
G19A G69C G110C | -6.61
G61C U92A | -4.11
U7A U130A | -0.147
G10U G69U U112G C123G | 1.15
G48U A84G | 0.021
U92C U116C | -2.42
C94A C101G C123G | -1.92
C15A C20U G58A U87G A90C C114G | -4.17
G48C A103G | -5.44
G19A U87A | -2.78
G44A U92G | -3.27
G10U C12G C89G U96A G110U U112A G117C | -5.26
G69C C99U | -3.79
C13G A37G C53G G110U G113A | -5
U55G C85A U92G U106A | -5.73
G35A U87G | -3.91
A105G A121C | -0.542
G10A C72U C89G G93U | -2.93
C20U C64U C85G C94G | -3.93
